Experimental data reported in patent US20250223280A1.
*1 amine or outer side, *2 acyl side, *3 side chain or, on linkers, in order; H or OH if unused. Bridges are numbered along the chain shown (N, C = ends). [ ]: non-standard residue; d: D form. N5,N5‑dimethylglutamine = CN(C)C(=O)CC[C@H](N[*:1])C(=O)[*:2]; Pro(4S-NH2) = N[C@@H]1CN[C@H](C(=O)O)C1

B1: Intermediate 18 (peptide)
peptide: cyclo([Pro(4S-NH2)]DCAWHLGQLVWCT[dP])
modifications: disulfide 3-13
SMILES: CC(C)C[C@@H]1NC(=O)[C@H](Cc2c[nH]cn2)NC(=O)[C@H](Cc2c[nH]c3ccccc23)NC(=O)[C@H](C)NC(=O)[C@@H]2CSSC[C@H](NC(=O)[C@H](Cc3c[nH]c4ccccc34)NC(=O)[C@H](C(C)C)NC(=O)[C@H](CC(C)C)NC(=O)[C@H](CCC(N)=O)NC(=O)CNC1=O)C(=O)N[C@@H]([C@@H](C)O)C(=O)N1CCC[C@@H]1C(=O)N1C[C@@H](N)C[C@H]1C(=O)N[C@@H](CC(=O)O)C(=O)N2
B2: Intermediate 16 (peptide)
peptide: cyclo([Pro(4S-NH2)]DCTWHLGELVWCT[dP])
modifications: disulfide 3-13
SMILES: CC(C)C[C@@H]1NC(=O)[C@H](Cc2c[nH]cn2)NC(=O)[C@H](Cc2c[nH]c3ccccc23)NC(=O)[C@H]([C@@H](C)O)NC(=O)[C@@H]2CSSC[C@H](NC(=O)[C@H](Cc3c[nH]c4ccccc34)NC(=O)[C@H](C(C)C)NC(=O)[C@H](CC(C)C)NC(=O)[C@H](CCC(=O)O)NC(=O)CNC1=O)C(=O)N[C@@H]([C@@H](C)O)C(=O)N1CCC[C@@H]1C(=O)N1C[C@@H](N)C[C@H]1C(=O)N[C@@H](CC(=O)O)C(=O)N2
B3: Intermediate 21 (peptide)
peptide: PDCXWHLGELVWCTP
modifications: residue 1 = (2S,4S)-4-aminoproline; residue 4 (X) = homoserine; residue 15 = D-Pro; backbone cyclised head to tail; disulfide Cys3-Cys13
B4: Intermediate 19 (peptide)
peptide: PDCAWHLGELVWCTP
modifications: residue 1 = (2S,4S)-4-aminoproline; residue 12 = 6-chlorotryptophan; residue 15 = D-Pro; backbone cyclised head to tail; disulfide Cys3-Cys13
B5: Intermediate 13 (peptide)
peptide: cyclo([Pro(4S-NH2)]NCAWHLGELVWCT[dP])
modifications: disulfide 3-13
SMILES: CC(C)C[C@@H]1NC(=O)[C@H](Cc2c[nH]cn2)NC(=O)[C@H](Cc2c[nH]c3ccccc23)NC(=O)[C@H](C)NC(=O)[C@@H]2CSSC[C@H](NC(=O)[C@H](Cc3c[nH]c4ccccc34)NC(=O)[C@H](C(C)C)NC(=O)[C@H](CC(C)C)NC(=O)[C@H](CCC(=O)O)NC(=O)CNC1=O)C(=O)N[C@@H]([C@@H](C)O)C(=O)N1CCC[C@@H]1C(=O)N1C[C@@H](N)C[C@H]1C(=O)N[C@@H](CC(N)=O)C(=O)N2
B6: Intermediate 24 (peptide)
peptide: PDCAWHLGELVWCTP
modifications: residue 1 = (2S,4S)-4-aminoproline; residue 12 = D-Trp; residue 15 = D-Pro; backbone cyclised head to tail; disulfide Cys3-Cys13
B7: Compound 53 (peptide)
peptide: cyclo(PDCAWHLGELVWCT[dP])
modifications: disulfide 3-13; not fully specified (residue 1); also: conjugate: hex-5-ynoyl peptide clicked to azide A18
B8: Intermediate 12 (peptide)
peptide: cyclo([Pro(4S-NH2)]ACAWHLGELVWCT[dP])
modifications: disulfide 3-13
SMILES: CC(C)C[C@@H]1NC(=O)[C@H](Cc2c[nH]cn2)NC(=O)[C@H](Cc2c[nH]c3ccccc23)NC(=O)[C@H](C)NC(=O)[C@@H]2CSSC[C@H](NC(=O)[C@H](Cc3c[nH]c4ccccc34)NC(=O)[C@H](C(C)C)NC(=O)[C@H](CC(C)C)NC(=O)[C@H](CCC(=O)O)NC(=O)CNC1=O)C(=O)N[C@@H]([C@@H](C)O)C(=O)N1CCC[C@@H]1C(=O)N1C[C@@H](N)C[C@H]1C(=O)N[C@@H](C)C(=O)N2
B9: Intermediate 25 (peptide)
peptide: cyclo([Pro(4S-NH2)]ACAWHLGALVWCT[dP])
modifications: disulfide 3-13
SMILES: CC(C)C[C@@H]1NC(=O)[C@H](C)NC(=O)CNC(=O)[C@H](CC(C)C)NC(=O)[C@H](Cc2c[nH]cn2)NC(=O)[C@H](Cc2c[nH]c3ccccc23)NC(=O)[C@H](C)NC(=O)[C@@H]2CSSC[C@H](NC(=O)[C@H](Cc3c[nH]c4ccccc34)NC(=O)[C@H](C(C)C)NC1=O)C(=O)N[C@@H]([C@@H](C)O)C(=O)N1CCC[C@@H]1C(=O)N1C[C@@H](N)C[C@H]1C(=O)N[C@@H](C)C(=O)N2
B10: Intermediate 4 (peptide)
peptide: PDCAWHLGELVWCTP
modifications: residue 1 = (2S,4S)-4-aminoproline; residue 15 = D-Pro; backbone cyclised head to tail; disulfide Cys3-Cys13; 4-amino group of residue 1 acylated with PEG4-propanoyl capped by hex-5-ynamide
B11: Intermediate 17 (peptide)
peptide: cyclo([Pro(4S-NH2)]DCAWHLGALVWCT[dP])
modifications: disulfide 3-13
SMILES: CC(C)C[C@@H]1NC(=O)[C@H](C)NC(=O)CNC(=O)[C@H](CC(C)C)NC(=O)[C@H](Cc2c[nH]cn2)NC(=O)[C@H](Cc2c[nH]c3ccccc23)NC(=O)[C@H](C)NC(=O)[C@@H]2CSSC[C@H](NC(=O)[C@H](Cc3c[nH]c4ccccc34)NC(=O)[C@H](C(C)C)NC1=O)C(=O)N[C@@H]([C@@H](C)O)C(=O)N1CCC[C@@H]1C(=O)N1C[C@@H](N)C[C@H]1C(=O)N[C@@H](CC(=O)O)C(=O)N2
B12: Intermediate 15 (peptide)
peptide: cyclo([Pro(4S-NH2)]ACSWHLGELVWCT[dP])
modifications: disulfide 3-13
SMILES: CC(C)C[C@@H]1NC(=O)[C@H](Cc2c[nH]cn2)NC(=O)[C@H](Cc2c[nH]c3ccccc23)NC(=O)[C@H](CO)NC(=O)[C@@H]2CSSC[C@H](NC(=O)[C@H](Cc3c[nH]c4ccccc34)NC(=O)[C@H](C(C)C)NC(=O)[C@H](CC(C)C)NC(=O)[C@H](CCC(=O)O)NC(=O)CNC1=O)C(=O)N[C@@H]([C@@H](C)O)C(=O)N1CCC[C@@H]1C(=O)N1C[C@@H](N)C[C@H]1C(=O)N[C@@H](C)C(=O)N2
B13: Intermediate 23 (peptide)
peptide: cyclo([Pro(4S-NH2)]DCAWHLG[N5,N5‑dimethylglutamine]LVWCT[dP])
modifications: disulfide 3-13
SMILES: CC(C)C[C@@H]1NC(=O)[C@H](Cc2c[nH]cn2)NC(=O)[C@H](Cc2c[nH]c3ccccc23)NC(=O)[C@H](C)NC(=O)[C@@H]2CSSC[C@H](NC(=O)[C@H](Cc3c[nH]c4ccccc34)NC(=O)[C@H](C(C)C)NC(=O)[C@H](CC(C)C)NC(=O)[C@H](CCC(=O)N(C)C)NC(=O)CNC1=O)C(=O)N[C@@H]([C@@H](C)O)C(=O)N1CCC[C@@H]1C(=O)N1C[C@@H](N)C[C@H]1C(=O)N[C@@H](CC(=O)O)C(=O)N2

Experiments:
IgG [1] = experiment: SPR, IgG immobilised on CM5 chip, compound as analyte; value from the legend of the grade (**** = Kd <100 nM)
IgG [2] = experiment: SPR, IgG immobilised on CM5 chip, compound as analyte; value from the legend of the grade (++++ = Kd <100 nM)

Binder | Kd (IgG [1]) | Kd (IgG [2])
B1 | < 100 nM | < 100 nM
B2 | < 100 nM | < 100 nM
B3 | < 100 nM | < 100 nM
cyclo(PDCAWHLGELVWCT[dP]) (disulfide 3-13; not fully specified (residue 1)) [Intermediate 9] |  | < 100 nM
B4 | < 100 nM | < 100 nM
B5 | < 100 nM | < 100 nM
B6 | < 100 nM | < 100 nM
B7 | < 100 nM | < 100 nM
B8 | < 100 nM | < 100 nM
B9 | < 100 nM | < 100 nM
B10 | < 100 nM | < 100 nM
cyclo([Pro(4S-NH2)]DCAWHLG[N5‑methylglutamine]LVWCT[dP]) (disulfide 3-13) [Intermediate 22] | < 100 nM | < 100 nM
B11 | < 100 nM | < 100 nM
B12 | < 100 nM | < 100 nM
B13 | < 100 nM | < 100 nM
